Laboratory results from the Human Domainome abundance scans (Beltran et al. 2025).

B1: Tripartite motif-containing protein 6, residues 93 to 134; numbered along this chain, Q9C030 (parent)
chain: KAVLCADHGEKLQLFCQEDGKVICWLCERSQEHRGHHTFLVE
B2: Cell division cycle and apoptosis regulator protein 1, residues 625 to 674; numbered along this chain, Q8IX12 (parent)
chain: ISTPTHWSKLDPKTMKVNDLRKELESRALSSKGLKSQLIARLTKQLKVEE

Variants of: B1
Experiment: abundance fitness (aPCA) (normalised: wild type 0, dead -1); higher = more abundant; growth selection in yeast, the domain comes from the species named
Details: Homo sapiens

Abundance fitness: each site, then its substitutions
H37: I -0.032 | C -0.17 | R 0.002
Q13: D -0.109 | V -0.148 | M -0.274
L4: G -0.175 | T -0.066 | Y 0.047 | K -0.148
L26: T -0.011 | M 0.474 | N -0.057 | W -0.169 | Q 0.259 | P -0.186
L14: G -0.082 | E -0.195 | I 0.001
E10: W -0.406
I23: R -0.34 | Q -0.842 | V -0.168 | H -0.202
G20: E 0.103 | A -0.036
C27: A -0.755 | E -0.863 | R -0.603 | L -0.8
W25: I -0.024 | R 0.173
L12: V -0.06 | N 0.381 | P 0.151 | E -0.109 | G 0.117 | T -0.084 | K -0.004
H33: S -0.28 | W -0.804 | M -0.549
L40: P 0.11 | D 0.091 | A 0.169
Q17: E 0.053
C16: T -0.747 | S -0.286 | A -0.284 | W -0.802 | H -0.337
C5: T -0.954 | M -0.769
D7: R -0.06 | K -0.007 | L 0.132 | N -0.085 | W -0.173
R34: M -0.052 | T 0.071 | S -0.035
D19: H -0.289 | G -0.757
R29: L -0.175 | H 0.051 | E -0.094
C24: S -0.717 | E -0.627 | P -0.517 | W -0.908
F39: Q 0.139 | W -0.149
A6: D -0.11 | F -0.158 | S 0.055 | C -0.156 | R -0.035 | H -0.43
H36: A -0.472
K21: N -0.034 | A -0.099 | H -0.136 | F -0.403 | C -0.402
V22: N 0.093
Q31: L -0.343 | S -0.031 | P -0.167 | K -0.103 | T -0.045
E18: I -0.364 | G -0.434
K1: F -0.36 | R -0.296 | E 0 | D 0.292 | C -0.698
K11: V -0.055
G9: M -0.162 | W -0.301 | C -0.237
V41: L -0.034 | E 0.029 | A 0.16 | W -0.043 | R 0.149 | P 0.036 | N 0.041
A2: C -0.167
G35: K -0.244 | T -0.079 | R -0.195 | V -0.41 | Q -0.215
E42: D 0.094
S30: Y -0.313 | I 0.167 | D 0.002 | A -0.016 | G -0.135 | P -0.7 | H -0.209
E28: L -0.272 | M -0.326 | P -0.376 | K -0.062 | H -0.481 | A -0.218 | Y -0.362 | I -0.414
F15: L -0.222
H8: S -0.901 | A -0.706 | T -0.69

Variants of: B2
Experiment: as above
Details: Homo sapiens

Abundance fitness of substitutions, site by site:
I39: Q -0.102 | C -0.059 | F -0.518 | S -0.205 | L -0.183 | M -0.1 | A -0.145 | D -0.266 | K 0.016 | V 0.022 | E -0.102 | T -0.049 | P -0.366 | R -0.013 | W -0.573 | G -0.286 | Y -0.279 | N -0.26
L46: T -0.467 | F -0.471 | D -0.705 | S -0.676 | R -0.554 | V -0.258 | Y -0.617 | Q -0.335 | M -0.023 | A -0.549 | G -0.787 | H -0.827 | N -0.744 | P -0.822 | I -0.146 | K -0.347 | W -0.805
T43: V -0.057 | L -0.043 | K 0.148 | S -0.048 | Y -0.281 | E -0.117 | R 0.103 | C -0.071 | M -0.094 | H -0.105 | Q -0.068 | W -0.202 | A -0.01 | P -0.721 | N -0.021 | I -0.05 | D -0.097
A40: H 0.1 | M 0.034 | R 0.019 | C -0.07 | T -0.108 | S -0.028 | N -0.066 | L -0.095 | K -0.349 | F 0.032 | P -0.12 | Y 0.219 | I -0.186 | G 0.03 | D -0.05
Q45: W -0.244 | K -0.015 | R 0.01 | A -0.045 | P -0.872 | I -0.187 | S -0.144 | H -0.284 | C -0.042 | T -0.093 | E -0.118 | G -0.364 | L -0.46 | M -0.216 | V -0.211 | D -0.596 | F -0.237
R41: S -0.271 | V -0.417 | A -0.377 | K -0.202 | D -0.434 | L -0.331 | F -0.814 | P -0.728 | N -0.235 | Q -0.466 | G -0.556 | M -0.356 | T -0.237 | H -0.374 | E -0.212 | I -0.416 | W -0.877
E49: L -0.983 | R -0.935 | A -0.867 | C -0.606 | G -0.919 | D -0.41 | Y -1.21 | K -1.19 | M -0.937 | V -0.906 | P -0.86 | N -0.909 | W -1 | Q -0.592 | I -0.943
K44: E -0.151 | T -0.128 | L -0.289 | H -0.246 | C -0.366 | Y -0.229 | M -0.355 | D -0.167 | S -0.19 | N -0.091 | P -0.652 | V -0.31 | I -0.296 | W -0.338 | A -0.161
E50: D -0.495 | N -0.332 | Q -0.064 | T -0.535 | H 0.003 | R -0.27 | M -0.641 | W -0.173 | A -0.21 | G -0.228 | I 0.068 | V -0.231
L42: Q -0.505 | Y -0.845 | I -0.231 | P -0.472 | A -0.662 | W -0.929 | S -0.563 | K -0.677 | D -0.493 | R -0.733 | C -0.795 | N -0.515 | V -0.634 | E -0.547 | T -0.585 | M -0.206 | F -0.56 | H -0.509 | G -0.516
K47: I -0.179 | T -0.131 | F -0.489 | M -0.266 | N -0.106 | H -0.212 | W -0.334 | L -0.151 | C -0.265 | D -0.204 | G -0.128 | Y -0.261 | R -0.083 | Q -0.196 | V -0.168 | P -0.806 | A -0.146 | E -0.23
V48: I 0.054 | W -0.178 | N 0.031 | G -0.154 | P -0.795 | H -0.106 | R -0.02 | C -0.113 | K 0.009 | Q -0.06 | M -0.092 | E -0.023 | A -0.117 | F 0.018 | L -0.06 | T -0.073 | D -0.114 | Y -0.207 | S -0.059
L38: Y -0.832
